Results on 13 sequences are retold here after the DeepSol protein solubility set.

The data set in a line: soluble on expression in E. coli; label from the status in PepcDB or PDB records.
In the case of “MEQSIFRDEKGDCPIVYLAGTLISIGSKPSARYGVCWGAGHAKNEGGPVAGSQTSLRAELTALRRTLEIALAEDITKLIIVFPSKMLGEQLEVWERRPEQHASFENSDILYRVEQLFGEAEARMYFSIDLPTPPDPRAHGYTKALQLARTMLVASRISRNSQITTVAIFAICEKEGKCDALAKYGVYWGQDDHRNEAGLVEDGQTSLRAIMCAVRSALRTAAMHGLKRVHFLTRRIDIINIIKKLAKGEEEDSPGKRNGAIFSDCSRLRSELLDISVKLVQKDVPCVELDRAEAITRGATKKLKKRDNEYERLDRQLLMIESSSSASSPESQPKIENIGDKCPTAVILNLLVRPKFGHSKVSYAVYWGENDEKNERGPVNMRAHAFQADLYAAMCALKKARSKNIRKLHLLTTSEYFKNWMENVQKKNELINDRYDVMMEFQLLLQNFESVTIEVVNSSTQGARRKMYEDAQTFFAGRNESIQKQRSIEDIQLEDPIENNIVEAESVNPESSNQIQVVYVGGACRGRGYANALAVYSVVWPIGEYGCSQGPVTGIVNNIRAKLAAVKSALQQAEQLGIASLIIRTNDQMVHDTLILQNSPIGNIDLMDDIESYKSRMRFVAYQLTTGDYARGNVVADRLAEVIVESIF”, the “soluble on expression in E. coli” value is listed as “soluble”.
The entry for “MEQYHKIVLTGSNAETMLIKNIEPVAVKFINNYKGFFYVFKYSKDFPIIDVYINNKIVTENQLNKILQNSGAKYKIYKNSIFNETQGNFGMLGDKYLAEFFKKTNEISLNILNQNFESYNKKIEFALEIMLISAHYNYDSIKKGYLSYASHVNGFFTRWKDPNKIRDIFHKNYLNNKEYLESKVSEIIDNNNRSSLSELSDIITEMKKEMTTDIEKGNLHVFNIELLQKPGERDFLEKSQFHKTILNNPDFSNFMNKDINFLGSRLITVFTYLLIRNLGIQNKDRYLLCYYIYKIIEEKYNIDTLELIRDFGKGRDNNVEDLQRY” is “not soluble”.
The entry for “MERFLRLGGLGGNLGTFGANPQDSNQVDTSETVYISSLALLKMLKHGRAGVPMEVMGLMLGEFVDDYTVNVIDVFAMPQSGTGVSVEAVDPVFQAKMLDMLKQTGRPEMVVGWYHSHPGFGCWLSGVDINTQQSFEALSDRAVAVVVDPIQSVKGKVVIDAFRTINPQSMALNQEPRQTTSNLGHLQKPSIQALIHGLNRHYYSIPIAYRTHDLEQKMLLNLNKLSWMDAVSVENYSKCGEQNKEHLKAMLKLAKNYKKALEDEKNMTDQELAIKNVGKMDPKRHIADEVSKMLNDNIVQSLAGMMATTSLQ” is “not soluble”; for “MERIALFIDGANVYAAAKRLGWNFDHRKILEHFAGLGALYNAFYYTAVPWPVDDKQKRFVDALTYMGYTVRTRPLRENTDENGDTSRRASLDIELVTDLLTTESRYDVAVLLSGDGDFERPVEVLRARGKKVIVASIPEMTSAELRNAADEYVDLASIREQVERPGYRLPSEGSGR” it is “not soluble”; for “MERKISRIHLVSEPSITHFLQVSWEKTLESGFVITLTDGHSAWTGTVSESEISQEADDMEMEKGKYVGELRKALLSGAGPADVYTFNFSKESCYFFFEKNLKDVSFRLGSFNLEKVENPAEVIRELICYCLDTTAENQAKNEHLQKENERLLRDWNDVQGRFEKCVSAKEALETDLYKRFILVLNEKKTKIRSLHNKLLNAAQ” it is “soluble”.
Then “MERYGYCIFCDDIRTEAGGKLSFIGCYNSAMFVTNEFPLSLPKLCVHFNVFSPADQPYKSLRVRCYLPGEDKPIAEESIEVPALQDQINLLTSLPKDQPMMPFIVVAASLIFSPCEIKSPGMIHVRAVINDSPTELHLGSLAVSSQATPQVALEHGPAAIN”, with “not soluble”.
Consider “MESNDSGGVAAKHGFLFQDCVAAYHVTRMLRDKTIRSVRCEVTDDIDIVSDGYIDFVQVKSTGKTRWNISDIVQNSKGADKKTIPCSSILHKSMQCESDLSLGRRYSIVTEEKVNKTLEYLTISPNARLDKPGRQELIDDLNKRTDNFLTDSGISVSDWIDAATWEVFSSLRELELLGIKNIRLASQDLHGVILSSETVAEDIWCRILDTVTRKGEHSRRIHSADDKSYLRPDLLEWFKQRVEDDQSRSGRKIYVKRDLPHILTPFRAPMASVCAKRKGQVLHQQYSLKKYRYKHIADNVCQWLDEVFLRPKEMSDIHKLTFIEKRERLKNSVFKSLHDVSEFLGRVLLHATIRQHHESQPIPCMLYVEKAGAEKILENVHIVRRDPEGDQLWIGFSELVTDINIAVRLPEIRDQLYEDISDCIDTARKKILDIKDDNYLLRHDIDEILDGSQPFDAHLDRFTFVLFVGYDSNLLTEPETPGFEDDLEKETAVLFEKFAADLIEDSPFANLCIHVFIYPAPSLERLTQLVDEKVREVV”, for which the “soluble on expression in E. coli” value was “soluble”.
The entry for “MESPNMRKRLIEMESSLEVKKTATTVKQEPLETSSPLLASMISTAPNPPPTSPHALNYLTLLAAFRQFLHGYIQAGGDENLANTLGNYVAALPMPPNSLNPIGPLNAPKSPFKQQQKFHSIIKAVKREPVSEPAQNAGSGDSSVTLSSALGEDAVPQNRGSCTSMKPVPRFVMLPVVAAQSASPSASGPTSEIQQLREAAFGRYKNVLCVICNEWICSRNRKNHIEAHLNYRPYKCSACSYARRREIFVDQHIRTQHKGVEGVVMLSDVDLHVAMEVDRLAEECVTRTRKIIDTMQEKKDGDFGENKDFDEKALQMMLAEEAENKVVVIESVSQVRPKVANYHRRQRTKVLKKIYDTDVAKQTELKIVKDEEGGVPTMSIKLEEGFEINLEDLMKMVGAGSSITDSNEPGPSEIKKELAEV” is “not soluble”; for “MESQLPKFLKEPEKYSRLRLLEALQELYLSIEMLKEGYSRNSASKLFLSWKALLSSIVVTNFGKIMETKKKEGKEDEIKWYMRIGYSAPTTGLIGIARDLENLGFKGLVNLTTAMLGIHRYAYNGLDEDISPFHSRSEAIISIKGLIKAEVEIVGSMKFGDEEKELFEKIKRELNNILEHHHHHH” it is “not soluble”.
As to “MESRYVLTGRYDSAPATDGSGTALGWTVAWKNNYRNAHSATTWSGQYVGGAEARINTQWLLTSGTTEANAWKSTLVGHDTFTKVKPSAASGGGSAEAGITGTWYNQLGSTFIVTAGADGALTGTYESA”, the “soluble on expression in E. coli” value is given as “soluble”.
As for “MESTLQIMPVQRTSRNFGEYAEEAVIIEEPIIKQKRPLFIEANTIEASLEHLRNDCIIPVFAKDNEATLSHVAFIEAVQDATNTFFSGEQIESPDIRVSHVIKGRIPEAIHKPANQLLESDKTIYYERCAFVIEVPTIYETVHGNRLTLTIGGVRAYNHTNLYSKKGAERFKVFIGFTCKVCTNLCVSTDGYLSCLEVTNTRDLYQAVLEMFHKYDAAKHIHLMQSLGNTSMTEHQFCQLLGRMRLYQSLPQGYQKDIPKMLLTDTQVNNVARAYINDENFGSLGNDLSMWKLYNLLTGANKSSYIDSFLDRAYNATELATGICSALHGDNKYQWFLS”, the “soluble on expression in E. coli” value is recorded as “not soluble”.
Then “MESVYLFSSGTLKRKANTICLETESGRKYIPVENVMDIKVFGEVDLNKRFLEFLSQKRIPIHFFNREGYYVGTFYPREYLNSGFLILKQAEHYINQEKRMLIAREIVSRSFQNMVDFLKKRKVRADSLTRYKKKAEEASNVSELMGIEGNAREEYYSMIDSLVSDERFRIEKRTRRPPKNFANTLISFGNSLLYTTVLSLIYQTHLDPRIGYLHETNFRRFSLNLDIAELFKPAVVDRLFLNLVNTRQINEKHFDEISEGLMLNDEGKSLFVKNYEQALRETVFHKKLNRYVSMRSLIKMELHKLEKHLIGEQVFGSEE”, with “soluble”.
The entry for “METDNVLKRILEIEHGFVHILDAAKEILSSSSEERSFAIASEFFDHEAYQPRMLATAILGHLAGTNSEALLFLKDRVSLDMNWRVQEMLAKAFDTFCKEQGYEKSLPVIREWLDSDNANVVRAVTEGLRIWTSRPFFKENPCLAIEWLSRHRGHESEYVRKSVGNALKDISKKHKESVAEELKKWDLSDPLVLFTYKHASKHPDKDIKKQ” is “not soluble”.
